Test results as given in the nanobody polyreactivity screen of Harvey et al. (2022).

Test: yeast display, Sf9 membrane polyspecificity reagent, FACS + sequencing; frameworks hold sequencing errors
How it was run: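 Nanobodies from a synthetic yeast display library (Saccharomyces cerevisiae BJ5465), induced 36–48 hours with galactose, were stained 1 hour at 4 °C with 10% biotinylated, detergent-solubilized Sf9 membrane reagent, enriched on streptavidin microbeads, then FACS-sorted. Anti-HA (expression) and streptavidin (reagent binding) fluorescence set low and high (top ~1%) gates. Polyreactivity labels come from the gate of origin. Genes were colony-PCR amplified, MiSeq 2 × 250 sequenced and filtered by CDR length.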

| Sequence | polyreactivity (PSR sort gate) |
| --- | --- |
| QVQLVESGGGLVQAGGSLRLSCAASGSIFSGNVMGWYRQAPGKERELVAAISGRGGSTYYADSVKGRFTISRDNAKNTVYLQMNSLKPEDTAVYYCAAVYLKTYYWGQGTQVTVSS | high polyreactivity |
| QVQLVESGGGLVQAGGSLRLSCAASGSIFSGYAMGWYRQAPGKESDLVAAISGSGGSTFYADSVKGRFTISRDYAKNTVYLQMNSLKPEDTAVYFCAARRIAPYGRYDYWGQGTQVTVSS | low polyreactivity |
| QVQLVESGGGLVQAGGSLRLSCAASGSIFSGYTMGWYRQAPGKERELVAAISSDGSTTYADSVKGRFTISRDNAKNTVYLQMNSLNPEDTADYYCAAYPYWEGSYGGYDYWGQGTEVTVSS | low polyreactivity |
| QVQLVESGGGLVQAGGSLRLSCAASGSIFSINAMGWYRQAPGKERELVAAISASGGSTYYADSVKGRFTISRDNAKNTVYLQMNSLKPEDTAVYYCAAEGSPTGYDYWGQGTQVTVSS | low polyreactivity |
| QVQLVESGGGLVQAGGSLRLSCAASGSIFSINTMGWYRQAPGKERELVATITWSVGSTNYADSVKGRFTISRDNAKNTVYLQMNSLKPEDTAVYYCNADSSRWPYRLYRFYYWGQGTQVTVSS | low polyreactivity |
| QVQLVESGGGLVQAGGSLRLSCAASGSIFSINTMGWYRQPPGKERELVAAITRSGSGTYYADSVKGRFTISRDNAKNTVYLQMNSLKPEDTAVYYCAKPAGARLGYWGQGTQVTVSS | low polyreactivity |
| QVQLVESGGGLVQAGGSLRLSCAASGSIFSIYAMEWYRQAPGKERELVAAITWGGGSTYYADSVKGRFTISRDNAKNTVYLQMNSLKPEDTAVYYCAADSLTWYGTYYYWGQGTQVTVSS | high polyreactivity |
| QVQLVESGGGLVQAGGSLRLSCAASGSIFSIYAMGWYRQAPGKERELVAAINWIGTSTYYADSVKGRFTISRDNAKNTVYLQMNSLKPEDTAVYYCAAVSRRVSPYLSARDYCGQGTQVTVSS | high polyreactivity |
| QVQLVESGGGLVQAGGSLRLSCAASGSIFSIYAMGWYRQAPGKERELVAAISSGGSTYADSVKGRFTISRDNAKNTVYLQMNSLKPEDTAVYYCAADRRGYRGYDYWGQGTQVTVSS | low polyreactivity |
| QVQLVESGGGLVQAGGSLRLSCAASGSIFSIYAMGWYRQAPWKERELVAAITWGGGSTYYADSVKGRFTISRDNAKNTVYVQMNSLKPEDTAVYYCAADSLTWYGTYYYWGQGTQVTVSS | high polyreactivity |
| QVQLVESGGGLVQAGGSLRLSCAASGSIFSKYTMGWSRQAPGKEWELVAVISDSGASTYYADSVKGRFTISRDNAKNTVYLEMNSLKPEDTAVYYCAAVYRGALTLYYWGQGTQVTVSS | high polyreactivity |
| QVQLVESGGGLVQAGGSLRLSCAASGSIFSKYVMGWYRQAPGKERELVAAISWSGTRTYYADSVKGRFTISRDNAKNTVYLQMNSLKPEDTAVDYCAARRLYAGHQYDYWGQGTQVTVSS | high polyreactivity |
| QVQLVESGGGLVQAGGSLRLSCAASGSIFSLYAMGWYRQAPGKEWELVAAISRGGSTNYADSVKGRFTISRDNAKNTVYLQMNSLKPEDTAVYYCNAGFGVRRKHITFYTWYDYWGQGTQVTVSS | low polyreactivity |
| QVQLVESGGGLVQAGGSLRLSCAASGSIFSNNAMGWYRQAPGKERELVAAITRSGGNTYYADSVKGRFTISRDNAKNTVYLQMNSLKPEDTAVYYCNAVHLRKMYYWGQGTQVTVSS | high polyreactivity |
| QVQLVESGGGLVQAGGSLRLSCAASGSIFSPNAMGWYRQAPGKERELVAGISWSGDGTYYADSVKGRFTISRDNAKNTVYLQMNSLKPEDTAVYYCAARFGRYSHRYYYWGQGTQVTVSS | high polyreactivity |
| QVQLVESGGGLVQAGGSLRLSCAASGSIFSPNDMGWYRQAPGKERELVAAITSAGSTYYADSVKGRFTISRDNAKNTVYLQMNSLKPEDTAVYYCAATYISVTDYAYFPLWYGYWGQGTQVTVSS | low polyreactivity |
| QVQLVESGGGLVQAGGSLRLSCAASGSIFSPYAMGWYRQAPGKERELVAAISRSGRTHYADSVKGRFTISRDNAKNTVYLQMNSLKPEDTAVYYCAAGVVYGYYYWGQGTQVTVSS | high polyreactivity |
